Article PMC4822050, “Hemi-methylated DNA opens a closed conformation of UHRF1 to facilitate its histone recognition” (Nature Communications, 2016)
Positions count from the first letter of the chain named. Names may count otherwise. Read-outs that look alike come from different tables or passages of the source. Blank lines part the entries; values can stand above or below the molecule they belong to.

Assays:
Type in all cases: binding
[1] = target: hm-DNA (12 bp); test: ITC, hm-DNA titrated into UHRF1 domains; conditions: 18 °C, 12-bp hm-DNA in syringe, named protein in cell, 10 mM HEPES pH 8.0, 100 mM NaCl
Description: (§1) For competition ITC experiments: the indicated proteins were pre-incubated with competitive peptide, protein or hm-DNA (at 1:2 molar ratio if not specified) for 10 min followed by ITC measurements as described above. Proteins, DNA and peptides were prepared within ITC buffer containing 10 mM HEPES, pH 8.0, 100 mM NaCl. The data were fitted by software Origin 7.0. All ITC results were summarized in Supplementary Table 2 and raw data were shown in Supplementary Fig. 9.

[2] = target: T1, TTD (residues 134–285) of UHRF1 (Homo sapiens, UniProt Q96T88); test: ITC, TTD titrated into Spacer variants and other UHRF1 fragments; conditions: TTD in syringe
T1 construct: TTD (residues 134–285); GST (N, cleaved yes); made in house; host or cells: E. coli BL21 (DE3)
T1 sequence (Q96T88 134-285): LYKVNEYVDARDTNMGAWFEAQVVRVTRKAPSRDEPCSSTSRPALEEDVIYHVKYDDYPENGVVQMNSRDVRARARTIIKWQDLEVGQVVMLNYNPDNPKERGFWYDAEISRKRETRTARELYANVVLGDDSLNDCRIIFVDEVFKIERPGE
Description: as §1

[3] = target: H3K9me3 peptide (1–17); test: ITC, H3K9me3 peptide (1-17) titrated into UHRF1 proteins
Description: as §1

[4] = target: T2, Spacer (residues 587–674) of UHRF1 (Homo sapiens, UniProt Q96T88); test: ITC, interaction of UHRF1 domains with the Spacer
T2 construct: Spacer (residues 587–674); GST (N, cleaved yes); made in house; host or cells: E. coli BL21 (DE3)
T2 sequence (Q96T88 587-674): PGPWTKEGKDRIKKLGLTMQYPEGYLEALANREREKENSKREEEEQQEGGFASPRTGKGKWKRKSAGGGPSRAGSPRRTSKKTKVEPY
Description: as §1

[5] = ITC, 18 °C, named protein 0.05 mM in cell, H3K9me3 (1-17) 0.5 mM in syringe, 10 mM HEPES pH 8.0, 100 mM NaCl, read-out: KD

KD ([3]; ITC, 18 °C, named protein 0.05 mM in cell, H3K9me3 (1-17) 0.5 mM in syringe, 10 mM HEPES pH 8.0, 100 mM NaCl): undetectable
B2: UHRF1D334A: UHRF1 mutant D334A, which abolishes H3R2-binding affinity of the PHD (protein)
chain: MWIQVRTMDGRQTHTVDSLSRLTKVEELRRKIQELFHVEPGLQRLFYRGKQMEDGHTLFDYEVRLNDTIQLLVRQSLVLPHSTKERDSELSDTDSGCCLGQSESDKSSTHGEAAAETDSRPADEDMWDETELGLYKVNEYVDARDTNMGAWFEAQVVRVTRKAPSRDEPCSSTSRPALEEDVIYHVKYDDYPENGVVQMNSRDVRARARTIIKWQDLEVGQVVMLNYNPDNPKERGFWYDAEISRKRETRTARELYANVVLGDDSLNDCRIIFVDEVFKIERPGEGSPMVDNPMRRKSGPSCKHCKDDVNRLCRVCACHLCGGRQDPDKQLMCAECDMAFHIYCLDPPLSSVPSEDEWYCPECRNDASEVVLAGERLRESKKKAKMASATSSSQRDWGKGMACVGRTKECTIVPSNHYGPIPGIPVGTMWRFRVQVSESGVHRPHVAGIHGRSNDGAYSLVLAGGYEDDVDHGNFFTYTGSGGRDLSGNKRTAEQSCDQKLTNTNRALALNCFAPINDQEGAEAKDWRSGKPVRVVRNVKGGKNSKYAPAEGNRYDGIYKVVKYWPEKGKSGFLVWRYLLRRDDDEPGPWTKEGKDRIKKLGLTMQYPEGYLEALANREREKENSKREEEEQQEGGFASPRTGKGKWKRKSAGGGPSRAGSPRRTSKKTKVEPYSLTAQQSSLIREDKSNAKLWNEVLASLKDRPASGSPFQLFLSKVEETFQCICCQELVFRPITTVCQHNVCKDCLDRSFRAQVFSCPACRYDLGRSYAMQVNQPLQTVLNQLFPGYGNGR
modifications: left off: GST, end not stated, cleaved

Kd [3, 5]: 8.69 µM
B5: UHRF1D334A&∆627-674: UHRF1 with mutation D334A and deletion of residues 627–674 (protein)
chain: MWIQVRTMDGRQTHTVDSLSRLTKVEELRRKIQELFHVEPGLQRLFYRGKQMEDGHTLFDYEVRLNDTIQLLVRQSLVLPHSTKERDSELSDTDSGCCLGQSESDKSSTHGEAAAETDSRPADEDMWDETELGLYKVNEYVDARDTNMGAWFEAQVVRVTRKAPSRDEPCSSTSRPALEEDVIYHVKYDDYPENGVVQMNSRDVRARARTIIKWQDLEVGQVVMLNYNPDNPKERGFWYDAEISRKRETRTARELYANVVLGDDSLNDCRIIFVDEVFKIERPGEGSPMVDNPMRRKSGPSCKHCKDDVNRLCRVCACHLCGGRQDPDKQLMCAECDMAFHIYCLDPPLSSVPSEDEWYCPECRNDASEVVLAGERLRESKKKAKMASATSSSQRDWGKGMACVGRTKECTIVPSNHYGPIPGIPVGTMWRFRVQVSESGVHRPHVAGIHGRSNDGAYSLVLAGGYEDDVDHGNFFTYTGSGGRDLSGNKRTAEQSCDQKLTNTNRALALNCFAPINDQEGAEAKDWRSGKPVRVVRNVKGGKNSKYAPAEGNRYDGIYKVVKYWPEKGKSGFLVWRYLLRRDDDEPGPWTKEGKDRIKKLGLTMQYPEGYLEALANREREKENSKSLTAQQSSLIREDKSNAKLWNEVLASLKDRPASGSPFQLFLSKVEETFQCICCQELVFRPITTVCQHNVCKDCLDRSFRAQVFSCPACRYDLGRSYAMQVNQPLQTVLNQLFPGYGNGR
modifications: left off: GST, end not stated, cleaved

More lines, now with the values behind:

B1: Spacer: C-terminal spacer region of human UHRF1 (residues 587–674) (protein)
chain: T2 sequence (Q96T88 587-674)
modifications: left off: GST, end not stated, cleaved
KD [1]: no interaction | N ([2]; ITC stoichiometry): 0.95±0.00786 | ΔH ([2]; ITC): -1.13 E4±116.7 cal/mol | ΔS ([2]; ITC): -12.3 cal/mol/deg | Kd ([3]; competition ITC, molar ratio TTD–PHD/Spacer=1:2, read-out: KD of H3K9me3 for TTD–PHD in the presence of the Spacer): 1.63 ± 0.08 µM

B3: R295D/R296D mutant of full-length UHRF1: full-length UHRF1 with Linker mutation R295D/R296D (protein)
chain: B2 chain with R295D, R296D, A334D
modifications: left off: GST, end not stated, cleaved
fold lower binding affinity to H3K9me3 than wild type UHRF1 ([3]; ITC, Supplementary Fig. 4g): eight

B4: TTD–PHD: human UHRF1 residues 134–366 (protein)
chain: LYKVNEYVDARDTNMGAWFEAQVVRVTRKAPSRDEPCSSTSRPALEEDVIYHVKYDDYPENGVVQMNSRDVRARARTIIKWQDLEVGQVVMLNYNPDNPKERGFWYDAEISRKRETRTARELYANVVLGDDSLNDCRIIFVDEVFKIERPGEGSPMVDNPMRRKSGPSCKHCKDDVNRLCRVCACHLCGGRQDPDKQLMCDECDMAFHIYCLDPPLSSVPSEDEWYCPECRND
modifications: left off: GST, end not stated, cleaved
N ([4]; ITC stoichiometry, Spacer in syringe): 0.887±0.0379 | Kd ([4]; ITC, 18 °C, Spacer in syringe, named protein in cell, 10 mM HEPES pH 8.0, 100 mM NaCl): 10.7 µM | ΔH ([4]; ITC, Spacer in syringe): -6.561 ± 0.4116 kcal/mol | ΔS ([4]; ITC, Spacer in syringe): 0.285 cal/mol/deg | interaction between the Spacer and the named protein in the presence of H3K9me3 ([4]; ITC, molar ratio of TTD-PHD or TTD: H3K9me3=1:2): No detectable interaction | fold higher binding affinity to H3K9me3 peptide than full-length UHRF1 ([3]; ITC KD ratio): ~31 fold | Kd [3, 5]: 0.15 µM
